Assay results published in patent US20250027068A1 (published 2025).
Where a chain is given by its changes, count along the chain named.

B1: PRT-419 (enzyme)
chain: MTITSVWTKGVTPPTPEDFRYNNEDVLHAPYVANQGWYDITKTFDGKDNLLCGAATAGNMLHWWFDQNKEEIERYLKKHPEKQKIIFNNQELFDVKAAIDTKDSQTNSKLFNYFRDKAFPNLSARQLGVMPDLVLDMFINGYYLNLGKTQSTDVNRPYQDKDKRGGIFDAVFTRGDQTTLLTARHDLKNKGLNEISDLIKQELTEGKALALSHTYANVRINHVINLWGADFDAEGNLIAIYVTDSDANASIGMKKYFVGVNANGKVAISAKKIEGDNIGAQVLGLFTLSTGQDQWQKLS
B2: PRT-427 (enzyme)
chain: B1 chain with D176V, Q294I
B3: PRT-380 (enzyme)
chain: MVTSVWTKGVTPPTNFTYGEDVLHAPYVANQGWYDITKTFNGKDDLLCGAATAGNMLHWWFDQNKEQIENYLKKHPEKQKINFNGEQMFDVKEAIDTKDSQLDSKLFEYFKEKAFPYLSTKHLGVFPDHVIDMFINGYRLSLTNHGPTPVKRGSKDPRGGIFDAVFTRGDQSKLLTNRHDFKEKTLKEISDLIKQELTEGKALGISHTYANARINHVINLWGADFDAEGNLEAIYVTDSDSNASIGMKKYFVGVNSNGKVAISAKEIEEDNIGAQVLGLFTLSTGQDIWNQTN
B4: PRT-388 (enzyme)
chain: B3 chain with D45T, A212V
B5: PRT-396 (enzyme)
chain: MVTSVWTKGVTPPADFTQGEDVFHAPYVANQGWYDITKTFNGKDDLLCGAATAGNMLHWWFDQNKEYIEAYLKKHPEKQKIMFGDQELLDVRKAINTKGSQKNSELFNYFRDKAFPNLSARRLGVMPDLVLDMFINGYYLNVTKTQTTDVNRTYQEKDKRGGIFDAVFTRGDQSKLLTSRHDFKEKGLKEISDLIKQELTEGKALGLSHTTANVRINHVINLWGADFDSDGNLKAIYVTDSDSNASIGMKKYFVGVNSAGKVAISAKEIKEDNIGAQVLGLFTLSTGQDIWNQTN

Target: pooled human IgG (human IgG1, 2, 3 and 4) (human)
Assay: cell-based or functional assay
Note: test concentration or dose not given here.

Row | Binder | Enzyme Activity Endpoint Assay: Fab′2 [ng/µL] | Enzyme Activity Endpoint Assay: Fc [ng/µL] | Enzyme Activity Endpoint Assay: IgG [ng/µL] | Enzyme Activity Endpoint Assay: scIgG [ng/µL]
1 | B1 | 528 | 298 | 183 | 0
2 | B2 | 537 | 352 | 135 | 139
3 | B3 | 66 | 258 | 219 | 702
4 | B4 | 481 | 338 | 34 | 222
5 | B5 | 0 | 92 | 1010 | 215
